Experiment [1] concerns the target ZYG11B (residues 490–728), Q9C0D3. In words: ITC. The following applies: chain shown with the change;; parent: 2.5 µM.
In a further experiment the target is T1, SFLHVGQD peptide.
T1 chain: SFLHVGQD
In words: ITC. The following applies: chain shown with the change;; parent: 1.3.

Bounds are passed on as bounds.

Sequence of ZYG11B (residues 490–728), Q9C0D3 (Q9C0D3 other isoform, or with tags, fused parts or gaps): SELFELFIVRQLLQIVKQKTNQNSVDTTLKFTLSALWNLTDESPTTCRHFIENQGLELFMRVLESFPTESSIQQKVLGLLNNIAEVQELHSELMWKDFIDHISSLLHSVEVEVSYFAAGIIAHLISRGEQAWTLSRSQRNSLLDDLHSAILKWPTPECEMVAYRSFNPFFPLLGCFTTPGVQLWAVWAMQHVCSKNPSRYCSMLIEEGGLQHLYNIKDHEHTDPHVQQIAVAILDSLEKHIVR

As a reminder, the Kd is the equilibrium constant for the complex coming apart. For VFLHVGQD [GFLHVGQD peptide G1V], in experiment [1], the dissociation constant Kd was more than 100 µM.

B1: ZER1 (residues 469–766), Q7Z7L7 D556A (protein)
chain: MEELEELEFQYRRVNELLLSILNPTRQDESIQRIAVHLCNALVCQVDNDHKEAVGKMGFVVTMLKLIQKKLLDKTCDQVMEFSWSALWNITAETPDNCEMFLNFNGMKLFLDCLKEFPEKQELHRNMLGLLGNVAEVKELRPQLMTSQFISVFSNLLESKADGIEVSYNACGVLSHIMFDGPEAWGVCEPQREEVEERMWAAIQSWDINSRRNINYRSFEPILRLLPQGISPVSQHWATWALYNLVSVYPDKYCPLLIKEGGMPLLRDIIKMATARQETKEMARKVIEHCSNFKEENMDTSR
For B1, the Kd with SFLHVGQD peptide was more than 100 µM.

B2: ZER1 (residues 469–766), Q7Z7L7 E600A (protein)
chain: MEELEELEFQYRRVNELLLSILNPTRQDESIQRIAVHLCNALVCQVDNDHKEAVGKMGFVVTMLKLIQKKLLDKTCDQVMEFSWSALWNITDETPDNCEMFLNFNGMKLFLDCLKEFPEKQELHRNMLGLLGNVAAVKELRPQLMTSQFISVFSNLLESKADGIEVSYNACGVLSHIMFDGPEAWGVCEPQREEVEERMWAAIQSWDINSRRNINYRSFEPILRLLPQGISPVSQHWATWALYNLVSVYPDKYCPLLIKEGGMPLLRDIIKMATARQETKEMARKVIEHCSNFKEENMDTSR
On to B2, for which the Kd in the experiment with SFLHVGQD peptide is more than 100 µM.
